4 molecules from publication PMC3814758, “The Geminin and Idas Coiled Coils Preferentially Form a Heterodimer That Inhibits Geminin Function in DNA Replication Licensing*” (The Journal of Biological Chemistry, 2013) can be followed below.

One may read the stoichiometry N as the number of molecules, sites or subunits per partner or assembly. By Kd is commonly meant the equilibrium constant for the complex coming apart.

Data set [1] concerns the molecule itself. As to the kind of experiment: SAXS; purified complexes at three concentrations each (0.5, 1.0, 2.5 mg/ml tGeminin-tGeminin; 1.0, 2.0, 6.0 mg/ml tIdas-tIdas and tIdas-tGeminin); X13 beamline, EMBL-Hamburg; Guinier plot and distance distribution.
Data set [2] addresses Cdt1 (115-353) (UniProt Q9H211).
The target of data set [3] is T1, Cdt1 (115-353) (UniProt Q9H211 115-353).
T1 chain: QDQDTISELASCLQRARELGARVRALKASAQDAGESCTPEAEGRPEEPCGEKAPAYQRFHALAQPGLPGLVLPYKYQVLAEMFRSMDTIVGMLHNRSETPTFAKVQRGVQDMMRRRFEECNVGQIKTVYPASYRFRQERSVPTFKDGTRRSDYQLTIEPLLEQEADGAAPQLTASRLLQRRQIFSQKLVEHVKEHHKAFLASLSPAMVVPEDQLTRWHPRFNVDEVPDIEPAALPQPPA
Nature of the data set: ITC. For orientation: In ITC the heat of successive injections is recorded.

For data set [4], the target named is Cdt1 (115-353) (UniProt Q9H211). As to the kind of experiment: ITC; 25 °C; 25 mM HEPES/NaOH pH 7.5, 150 mM NaCl, 0.5 mM Tris(2-carboxyethyl)phosphine; 28 injections of 10 μl of the protein dimers (2-80 μM) into 1.4 ml of Cdt1 (0.2-10 μM).
The target of data set [5] is T2, Cdt1 (115-353) (UniProt Q9H211 115-353).
T2 sequence (looked up): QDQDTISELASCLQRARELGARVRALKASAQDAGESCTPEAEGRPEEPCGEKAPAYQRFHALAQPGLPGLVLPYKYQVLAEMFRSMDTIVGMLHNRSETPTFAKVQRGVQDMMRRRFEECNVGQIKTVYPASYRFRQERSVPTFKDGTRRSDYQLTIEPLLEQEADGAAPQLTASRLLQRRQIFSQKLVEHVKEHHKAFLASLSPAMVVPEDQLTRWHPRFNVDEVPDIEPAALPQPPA
Nature of the data set: cell-based or functional assay.

Data set [6] deals with T2, Cdt1 (115-353). Nature of the data set: ITC; 25 °C; 25 mM HEPES/NaOH pH 7.5, 150 mM NaCl, 0.5 mM Tris(2-carboxyethyl)phosphine; 28 injections of 10 μl of the protein dimers (2-80 μM) into 1.4 ml of Cdt1 (0.2-10 μM). Particulars: both partners purified.

B1: tIdas, coiled-coil domain of Idas (residues 173-245) (domain or fragment, UniProt D6RGH6 173-245, looked up)
chain: PDVPPPEQYWKEVADQNQRALGDALVENNQLHVTLTQKQEEIASLKERNVQLKELASRTRHLASVLDKLMITQ
notes: Idas (Multicilin), residues 173-245 (coiled-coil construct tIdas); Single chain, used for the rows of tIdas with itself and with tGeminin; Cleavable His tag; also called Multicilin; source: expressed on its own, or co-expressed with Geminin in Escherichia coli; purified
As to B1, the “stoichiometry N” value in data set [1] was determined as 2.

B2: tGeminin-tGeminin homodimer (complex)
chain: TQESFDLMIKENPSSQYWKEVAEKRRKALYEALKENEKLHKEIEQKDNEIARLKKENKELAEVAEHVQYMAELIERLNG
On to B2, for which the IC50 of inhibition of replication licensing and DNA replication of sperm DNA in Xenopus egg extract (Cdt1 of the extract), increasing concentrations of the dimer in the data set with Cdt1 (115-353) [2] came to 50 nM. Besides, the results for the Kd with Cdt1 (115-353) [3] and with Cdt1 (115-353) [4] were 2.6 nM and 3.5 nM, respectively.

B3: tGeminin, coiled-coil domain of Geminin (residues 82-160) (domain or fragment, human, UniProt O75496 82-160, looked up)
chain: TQESFDLMIKENPSSQYWKEVAEKRRKALYEALKENEKLHKEIEQKDNEIARLKKENKELAEVAEHVQYMAELIERLNG
notes: Geminin, human, residues 82-160 (coiled-coil construct tGeminin); Single chain, used for the rows of tGeminin with itself and with tIdas; Cloned both with a cleavable His tag and without tag; In the co-expressed complex the tag was on Idas; source: expressed on its own, or co-expressed with Idas in Escherichia coli; purified
Take B3: in data set [1], the “stoichiometry N” value is 2.

B4: tIdas-tGeminin heterodimer (complex)
chain 1: PDVPPPEQYWKEVADQNQRALGDALVENNQLHVTLTQKQEEIASLKERNVQLKELASRTRHLASVLDKLMITQ
chain 2: TQESFDLMIKENPSSQYWKEVAEKRRKALYEALKENEKLHKEIEQKDNEIARLKKENKELAEVAEHVQYMAELIERLNG
notes: Idas (Multicilin), residues 173-245; Geminin, human, residues 82-160; Preformed heterodimer; also called tGeminin-tIdas; Idas-Geminin heterodimer; source: co-expression in Escherichia coli, purified (IMAC by the His tag on Idas, size exclusion chromatography); copies: 1 + 1
As to B4, the “IC50 of inhibition of replication licensing and DNA replication of sperm DNA in Xenopus egg extract (Cdt1 of the extract), increasing concentrations of the dimer” value with Cdt1 (115-353) [5] was about 720 nM. Moreover, in the data set with Cdt1 (115-353) [6], the Kd is about 35 nM and the “dH less favourable than for tGeminin-tGeminin binding to Cdt1” value is 21.1 kcal/mol.
